Measurements taken from patent US8119387B2, “Polypeptides of strain Bacillus sp. P203” (Novozymes A/S, priority 2005, dated 2012).

Columns and labels:
[1] = molecular target: recombinant carbonic anhydrase (SEQ ID NO: 4) from Bacillus sp. P203 (Alkalicoccobacillus plakortidis, UniProt A0ABT0XM38); conditions: read-out: IC50, inhibition of recombinant carbonic anhydrase; purified recombinant enzyme from Bacillus sp. P203
Method: A standard assay contained 900 microliter of PNPA, 10 microliter of 300 mM Tris pH 7.5 and 90 microliter of carbonic anhydrase protein solution. After a pre-incubation for 5 min, the enzyme was added to the PNPA buffer mixture and the increase in absorbance (due to the hydrolysis of the substrate and release of p-nitrophenol) at 348 nm was monitored photometrically in a quartz cuvette over a period of 10 min. As a positive control for both activity assays, a solution of bovine carbonic anhydrase (Calbiochem, 1 mg per mL) may be used.
Enzyme was pre-incubated with 1 mM of the substances for 1 h on ice in a total volume of 50 micro liter before testing activity with 10 micro liter of the mixture with the Wilbur and Anderson, 1948 method. The control with no additives (water) was set to 100% activity. […] Instead activity with 25 micro molar concentration of the chemicals are given.

[2] = Temperature and storage stability of purified recombinant carbonic anhydrase (residual activity); assay type: physicochemical
Method: The carbonic anhydrase activity was determined according to Wilbur. […] 147-154. […] (see FIG. 2).

recombinant carbonic anhydrase (SEQ ID NO: 4) from Bacillus sp. P203, sequence (A0ABT0XM38 entry or part of it): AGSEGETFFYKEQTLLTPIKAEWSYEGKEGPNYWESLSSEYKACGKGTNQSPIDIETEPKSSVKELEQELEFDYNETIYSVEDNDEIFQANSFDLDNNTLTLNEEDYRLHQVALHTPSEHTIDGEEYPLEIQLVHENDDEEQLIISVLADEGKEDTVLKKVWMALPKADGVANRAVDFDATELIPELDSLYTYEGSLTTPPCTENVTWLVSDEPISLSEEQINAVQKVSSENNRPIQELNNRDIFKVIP

Molecule	IC50 [1] [µM]	activity remaining after storage ([2]; 4° C. in buffer F for a week)	effect of storage with DTT on stability ([2]; buffer F supplemented with 1 mM dithiothreitol (DTT))	activity remaining after storage ([2]; room temperature (20° C.), buffer F)	stability at elevated temperature ([2]; temperatures over 37° C., tested 4-60° C. for 1 and 17 h (FIG. 2))	activity remaining after storage ([2]; −20° C. for one week in buffer F)
[N-]=[N+]=[N-] [azide]	500					
recombinant carbonic anhydrase: purified recombinant carbonic anhydrase (SEQ ID NO: 4) from strain Bacillus sp. P203 (protein, Bacillus sp. P 203, P203) MRKTNVLLKSTMITTLLLSSTLLVTTPIYAHTETQQLSYKTLNDLLTEDGHSGWSYSGLTGPEYWGELNEDYKACSKGEEQSPIALQNEDIDNEKWSFDLDYEETEFSIENNGHTIQANVEGSSSNTLLLNDTEYNLVQFHFHSPSEHTLDDEYFEMEVHLVHQDEHANLAVLGVLIEEGEQNETLTDMWELMPGQQGEAAERITLNPSELVPSDLSTFQYDGSLTTPPCSEDVKWSVSDSTISLSPEQLEAFQDLYPNNYRPIQDLGNREVGFHY		97+/−4 % of original activity	stabilize the enzyme	95+/−4 % of original activity	rapidly decreased	99+/−4 % of original activity
